{"source": "paper PMC6471826", "about": "“Cold-Adapted Glutathione S-Transferases from Antarctic Psychrophilic Bacterium Halomonas sp. ANT108: Heterologous Expression, Characterization, and Oxidative Resistance” (Marine Drugs, 2019)", "test_system": "O=[N+]([O-])c1ccc(Cl)c([N+](=O)[O-])c1", "test": "purified protein", "settings": "co-substrate GSH, CDNB 0.5-4.5 mM, 25 °C"}
{"substance": "rHsGST (Halomonas sp.)", "values": [{"measurement": "Km", "value": 2860, "unit": "µM"}, {"measurement": "kcat/Km", "value": 18800, "unit": "M⁻¹ s⁻¹"}]}
